Test results from patent US20020037533A1 (University of California, published 2002).

Molecular target: T1, myc-tagged PSD95 (UniProt P31016 1-724)
T1 construct: also called PSD-95 myc; PSD-95-myc; not shown: myc tag
Test: co-immunoprecipitation from HEK 293T cells stably expressing Flag-tagged GPR10, transfected with myc-tagged PSD95
Protocol: Forty-eight hours after transfection, cells were washed once in PBS and lysed with IP buffer (1% triton X-100, 25 mM Tris, pH 7.4, 50 mM NaCl, 5 mM EDTA, 5 mM EGTA, 0.1 mM phenylmethylsulphonyl fluoride (PMSF), aprotinin, leupeptin, and bacitracin). Immunoprecipitation was performed using 2 μg anti-Flag M2 antibody (Sigma) or 1 μg anti-myc antibody (Roche) followed by 25 μl protein G-agarose (Sigma). Immunoprecipitation was carried out overnight at 4° C. Immunoprecipitated proteins were resolved on SDS-PAGE, transferred to PVDF membrane. Western blotting was performed to detect GRIP using anti-GRIP antibody (1:1000). ABP-myc, PSD-95-myc, and PICK1-myc were detected using the monoclonal anti-myc antibody (1:500, Clontech).
To determine whether GPR10 interacts specifically with AMPA receptor interacting proteins, myc-tagged ABP and myc-tagged PSD95 were transfected into cell lines expressing wild type and mutant Flag-tagged GPR10.

T1 sequence (P31016 whole entry): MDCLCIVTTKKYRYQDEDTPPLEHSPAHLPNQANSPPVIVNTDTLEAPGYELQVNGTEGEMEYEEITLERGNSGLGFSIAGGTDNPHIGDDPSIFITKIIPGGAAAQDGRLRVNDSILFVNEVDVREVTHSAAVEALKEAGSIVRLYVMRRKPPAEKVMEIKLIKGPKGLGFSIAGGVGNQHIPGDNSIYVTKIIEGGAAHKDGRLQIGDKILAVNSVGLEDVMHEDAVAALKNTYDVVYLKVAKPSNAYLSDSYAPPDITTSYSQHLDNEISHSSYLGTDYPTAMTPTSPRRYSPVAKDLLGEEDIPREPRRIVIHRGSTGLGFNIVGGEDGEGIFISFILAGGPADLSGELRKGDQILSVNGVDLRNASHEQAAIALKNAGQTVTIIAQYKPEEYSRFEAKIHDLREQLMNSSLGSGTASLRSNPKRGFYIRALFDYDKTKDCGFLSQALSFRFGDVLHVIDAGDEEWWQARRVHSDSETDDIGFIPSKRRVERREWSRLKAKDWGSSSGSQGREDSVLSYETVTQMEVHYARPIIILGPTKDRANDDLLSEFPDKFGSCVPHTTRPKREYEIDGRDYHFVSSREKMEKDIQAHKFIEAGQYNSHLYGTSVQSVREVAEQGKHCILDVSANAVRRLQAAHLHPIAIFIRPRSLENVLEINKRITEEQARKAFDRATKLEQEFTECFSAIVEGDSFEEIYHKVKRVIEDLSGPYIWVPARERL

B1: Flag-tagged GPR10 (wild type) (receptor, UniProt P49683 1-370, looked up)
chain: MASSTTRGPRVSDLFSGLPPAVTTPANQSAEASAGNGSVAGADAPAVTPFQSLQLVHQLKGLIVLLYSVVVVVGLVGNCLLVLVIARVRRLHNVTNFLIGNLALSDVLMCTACVPLTLAYAFEPRGWVFGGGLCHLVFFLQPVTVYVSVFTLTTIAVDRYVVLVHPLRRRISLRLSAYAVLAIWALSAVLALPAAVHTYHVELKPHDVRLCEEFWGSQERQRQLYAWGLLLVTYLLPLLVILLSYVRVSVKLRNRVVPGCVTQSQADWDRARRRRTFCLLVVIVVVFAVCWLPLHVFNLLRDLDPHAIDPYAFGLVQLLCHWLAMSSACYNPFIYAWLHDSFREELRKLLVAWPRKIAPHGQNMTVSVVI
notes: whole, on cells; Expressed in HEK 293T or COS7 cells; immunoprecipitated from Triton lysates with anti-Flag M2; also called Flag GPR10 WT; PrRP receptor; not shown: Flag tag
B1: no binding.
